Test results from IntAct's records for PubMed 20739938.

B1: Regulator of chromosome condensation (Homo sapiens), P18754 (parent)
chain: MSPKRIAKRRSPPADAIPKSKKVKVSHRSHSTEPGLVLTLGQGDVGQLGLGENVMERKKPALVSIPEDVVQAEAGGMHTVCLSKSGQVYSFGCNDEGALGRDTSVEGSEMVPGKVELQEKVVQVSAGDSHTAALTDDGRVFLWGSFRDNNGVIGLLEPMKKSMVPVQVQLDVPVVKVASGNDHLVMLTADGDLYTLGCGEQGQLGRVPELFANRGGRQGLERLLVPKCVMLKSRGSRGHVRFQDAFCGAYFTFAISHEGHVYGFGLSNYHQLGTPGTESCFIPQNLTSFKNSTKSWVGFSGGQHHTVCMDSEGKAYSLGRAEYGRLGLGEGAEEKSIPTLISRLPAVSSVACGASVGYAVTKDGRVFAWGMGTNYQLGTGQDEDAWSPVEMMGKQLENRVVLSVSSGGQHTVLLVKDKEQS

Variants of: B1
Settings: with h2b11, P02281

Effect of a mutation on the interaction, disrupting interaction:
R237A
K232A
K232A;R234A;R237A
R234A
